Several values for one entry are separate records, joined by “and”; a condition that tells them apart may be missing. Equal values may be shown once. Entries after “also recorded” stand apart in the source; their conditions may differ. Read-outs that look alike come from different tables or passages of the source.
Assays:
[1] = Isoelectric point (pI) of VHH / VHH-comprising polypeptide; type: physicochemical
[2] = target: GFAP (glial fibrillary astrocytic protein) (Homo sapiens, UniProt P14136); assay: Western blotting of VHH on purified GFAP; type: binding; details: VHH 1 μg/ml
Experimental: (§1) The specificity of the VHH of the invention (A12) as compared to a control VHH recognizing brain proteins (H8/E9, identical to VHH E9, Perruchini et al.) was determined by western blotting on 3 different antigens: a human brain extract (Sg tau 4697), a mouse brain extract (Tg 4510) and on a purified protein, GFAP, a specific marker of astrocytes. […] Furthermore, VHH immunohistochemistry was performed from Tg4510 mouse tissues (Grueninger et al, 2010) harbouring NFTs. […] For western blotting, first we performed a polyacrylamide gel electrophoresis at 200 V for 45 min. Then we transferred proteins from gel to nitrocellulose membrane during 1H at 30 V. We saturated nitrocellulose membrane with PBS milk 2% for 1H under stirring. The membrane was then incubated for 1H with selected VHH diluted at 1 μg/ml in PBS milk 2%, and washed 3 times 5 min with PBS Tween. A secondary mouse mAb C23-21 recognizing Strep-tag (DI 2012-32 High-affinity monoclonal anti-Strep-Tag antibody C23.21; Girard-blanc C., Krey T., Vasiliauskaite ieva, Nato F., Lafaye P., Dartevelle S., Rey F.) was added at 1:2500 and incubated 1H at 37° C. Then after additional washes, an anti-mouse mAb labelled with peroxidase was added for 1 H. Three washes of 5 min in PBS Tween were performed.

[3] = system: mouse brain extract (Tg 4510); assay: Western blotting of VHH on mouse brain extract; type: binding; details: VHH 1 μg/ml
Experimental: as §1

[4] = system: Tg 4510 mouse brain tissue; assay: Immunohistochemistry on Tg 4510 mouse brain sections; type: binding; details: Tg 4510 paraffin-embedded mouse brain sections
Experimental: as §1

[5] = system: human brain extract (Sg tau 4697); assay: Western blotting of VHH on human brain extract; type: binding; details: VHH 1 μg/ml
Experimental: as §1

GFAP (glial fibrillary astrocytic protein), sequence (P14136 whole entry, species assumed): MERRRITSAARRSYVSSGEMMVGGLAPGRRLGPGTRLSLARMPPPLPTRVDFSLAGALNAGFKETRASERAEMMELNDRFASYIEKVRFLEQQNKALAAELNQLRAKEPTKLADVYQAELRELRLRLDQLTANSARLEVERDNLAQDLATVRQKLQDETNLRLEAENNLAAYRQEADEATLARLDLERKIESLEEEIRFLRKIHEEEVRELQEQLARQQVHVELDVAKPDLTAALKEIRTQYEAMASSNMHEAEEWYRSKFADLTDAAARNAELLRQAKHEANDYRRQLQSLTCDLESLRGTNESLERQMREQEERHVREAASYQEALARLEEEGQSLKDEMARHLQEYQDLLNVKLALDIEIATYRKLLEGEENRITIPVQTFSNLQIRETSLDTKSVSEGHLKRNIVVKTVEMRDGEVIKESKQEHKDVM

Molecule	isoelectric point (pI) [1]	reactivity by western blotting against GFAP [2]	reactivity by western blotting against GFAP ([2]; listed as VHH A2)	reactivity by western blotting against mouse brain extract [3]	reactivity by western blotting against mouse brain extract ([3]; listed as VHH A2)	isoelectric point (pI) ([1]; listed as SEQ ID NO:3)	immunoreactivity / labelling by immunohistochemistry [4]	reactivity by western blotting against human brain extract [5]	reactivity by western blotting against human brain extract ([5]; listed as VHH A2)
RRVNRSEPTQHNLRGTGREVSVTPQSGKIISSWEVHGQQTRL [Neurovita 3]	basic	–	–	–	–	–	–	–	–
VHH A12: alpaca VHH with the sequence of SEQ ID NO:3, selected from an immune library; does not recognize any human brain protein (protein) VHH: EVQLQASGGGLAQPGGSLRLSVTVSGSIDVINNMAWYRQAPGNARELVATITSGFSTNYASSVKGRFTISRDNAKKAVYLQMNSLKPEDTADYYSKVHLIRLGAARAYDYWGQGTQVTVS	9.78 and > 8.5 and 9.86	no reactivity; also recorded: not to recognize any brain protein	no bands were detected	no reactivity; also recorded: not to recognize any brain protein	no bands were detected	> 9	no immunoreactivity; also recorded: no labelling was observed; also recorded: not to recognize any brain protein	does not recognize any human brain protein; also recorded: no reactivity; also recorded: not to recognize any brain protein	no bands were detected

From US10591466B2, “In vitro blood-brain barrier model” (priority 2014, dated 2020)
